From US20230250154A1 (CYTONICS, published 2023)

Legend:
Assay in all cases: cell-based or functional assay
ADAMTS4 = target: T1, ADAMTS4 (human, UniProt O75173 213-685, limits assumed)
T1 sequence (looked up): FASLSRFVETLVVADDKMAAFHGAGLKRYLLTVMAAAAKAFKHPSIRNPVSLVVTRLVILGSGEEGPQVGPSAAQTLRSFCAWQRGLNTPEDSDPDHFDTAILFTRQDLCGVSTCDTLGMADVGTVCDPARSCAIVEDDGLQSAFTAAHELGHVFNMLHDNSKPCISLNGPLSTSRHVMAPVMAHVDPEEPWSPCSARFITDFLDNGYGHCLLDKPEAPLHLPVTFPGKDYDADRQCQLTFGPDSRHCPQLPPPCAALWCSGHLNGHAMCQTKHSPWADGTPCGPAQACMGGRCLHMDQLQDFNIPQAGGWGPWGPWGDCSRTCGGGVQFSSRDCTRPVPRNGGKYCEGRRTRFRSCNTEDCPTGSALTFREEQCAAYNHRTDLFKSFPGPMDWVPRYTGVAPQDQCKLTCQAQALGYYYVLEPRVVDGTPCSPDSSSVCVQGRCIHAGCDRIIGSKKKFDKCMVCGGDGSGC

ADAMTS5 = target: T2, ADAMTS5 (human, UniProt Q9UNA0 262-622, limits assumed)
T2 sequence (looked up): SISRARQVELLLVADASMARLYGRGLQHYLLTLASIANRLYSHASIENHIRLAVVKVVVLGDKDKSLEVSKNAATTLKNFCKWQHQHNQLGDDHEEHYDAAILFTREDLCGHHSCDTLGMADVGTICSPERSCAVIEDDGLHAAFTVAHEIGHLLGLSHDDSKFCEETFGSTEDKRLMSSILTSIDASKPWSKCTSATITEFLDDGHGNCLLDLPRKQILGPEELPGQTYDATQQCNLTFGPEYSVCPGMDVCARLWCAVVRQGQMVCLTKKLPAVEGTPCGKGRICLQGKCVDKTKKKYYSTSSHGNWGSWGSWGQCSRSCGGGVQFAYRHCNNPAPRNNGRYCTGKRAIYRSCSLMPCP

MMP13 = MMP13 (human, UniProt P45452 104-471, limits assumed)

B1: Variant A2M, bait region SEQ ID NO 110 (other)
chain: SVSGKPQYMVLVPSLLHTETTEKGCVLLSYLNETVTVSASLESVRGNRSLFTDLEAENDVLHCVAFAVPKSSSNEEVMFLTVQVKGPTQEFKKRTTVMVKNEDSLVFVQTDKSIYKPGQTVKFRVVSMDENFHPLNELIPLVYIQDPKGNRIAQWQSFQLEGGLKQFSFPLSSEPFQGSYKVVVQKKSGGRTEHPFTVEEFVLPKFEVQVTVPKIITILEEEMNVSVCGLYTYGKPVPGHVTVSICRKYSDASDCHGEDSQAFCEKFSGQLNSHGCFYQQVKTKVFQLKRKEYEMKLHTEAQIQEEGTVVELTGRQSSEITRTITKLSFVKVDSHFRQGIPFFGQVRLVDGKGVPIPNKVIFIRGNEANYYSNATTDEHGLVQFSINTTNVMGTSLTVRVNYKDRSPCYGYQWVSEEHEEAHHTAYLVFSPSKSFVHLEPMSHELPCGHTQTVQAHYILNGGTLLGLKKLSFYYLIMAKGGIVRTGTHGLLVKQEDMKGHFSISIPVKSDIAPVARLLIYAVLPTGDVIGDSAKYDVENCLANKVDLSFSPSQSLPASHAHLRVTAAPQSVCALRAVDQSVLLMKPDAELSASSVYNLLPEKDLTGFPGPLNDQDDEDCINRHNVYINGITYTPVSSTNEKDMYSFLEDMGLKAFTNSKIRKPKMCPQLETEGRGEREAQGEFPEVEGEEEGGGPEKETGGEREAQGKLRKYFPETWIWDLVVVNSAGVAEVGVTVPDTITEWKAGAFCLSEDAGLGISSTASLRAFQPFFVELTMPYSVIRGEAFTLKATVLNYLPKCIRVSVQLEASPAFLAVPVEKEQAPHCICANGRQTVSWAVTPKSLGNVNFTVSAEALESQELCGTEVPSVPEHGRKDTVIKPLLVEPEGLEKETTFNSLLCPSGGEVSEELSLKLPPNVVEESARASVSVLGDILGSAMQNTQNLLQMPYGCGEQNMVLFAPNIYVLDYLNETQQLTPEIKSKAIGYLNTGYQRQLNYKHYDGSYSTFGERYGRNQGNTWLTAFVLKTFAQARAYIFIDEAHITQALIWLSQRQKDNGCFRSSGSLLNNAIKGGVEDEVTLSAYITIALLEIPLTVTHPVVRNALFCLESAWKTAQEGDHGSHVYTKALLAYAFALAGNQDKRKEVLKSLNEEAVKKDNSVHWERPQKPKAPVGHFYEPQAPSAEVEMTSYVLLAYLTAQPAPTSEDLTSATNIVKWITKQQNAQGGFSSTQDTVVALHALSKYGAATFTRTGKAAQVTIQSSGTFSSKFQVDNNNRLLLQQVSLPELPGEYSMKVTGEGCVYLQTSLKYNILPEKEEFPFALGVQTLPQTCDEPKAHTSFQISLSVSYTGSRSASNMAIVDVKMVSGFIPLKPTVKMLERSNHVSRTEVSSNHVLIYLDKVSNQTLSLFFTVLQDVPVRDLKPAIVKVYDYYETDEFAIAEYNAPCSKDLGNADYKDDDDKGASHHHHHH
**Q.** With B1 as the binder, how does the “Protease Inhibition (% of WT)” value (ADAMTS4) read?
**A.** 101 % of WT

**Q.** And the “Protease Inhibition (% of WT)” value (ADAMTS5)?
**A.** 208 % of WT

**Q.** And the “Protease Inhibition (% of WT)” value (MMP13)?
**A.** 51 % of WT
